In patent publication US20230250154A1:

target: Protease Mixtures; assay: cell-based or functional assay

Binder	Protease Inhibition (% of WT); Protease Mixtures, IGD Substrate	Protease Inhibition (% of WT); Protease Mixtures, Collagen Substrate
Variant A2M, bait region SEQ ID NO 125, P01023 24-1474 (protein) SVSGKPQYMVLVPSLLHTETTEKGCVLLSYLNETVTVSASLESVRGNRSLFTDLEAENDVLHCVAFAVPKSSSNEEVMFLTVQVKGPTQEFKKRTTVMVKNEDSLVFVQTDKSIYKPGQTVKFRVVSMDENFHPLNELIPLVYIQDPKGNRIAQWQSFQLEGGLKQFSFPLSSEPFQGSYKVVVQKKSGGRTEHPFTVEEFVLPKFEVQVTVPKIITILEEEMNVSVCGLYTYGKPVPGHVTVSICRKYSDASDCHGEDSQAFCEKFSGQLNSHGCFYQQVKTKVFQLKRKEYEMKLHTEAQIQEEGTVVELTGRQSSEITRTITKLSFVKVDSHFRQGIPFFGQVRLVDGKGVPIPNKVIFIRGNEANYYSNATTDEHGLVQFSINTTNVMGTSLTVRVNYKDRSPCYGYQWVSEEHEEAHHTAYLVFSPSKSFVHLEPMSHELPCGHTQTVQAHYILNGGTLLGLKKLSFYYLIMAKGGIVRTGTHGLLVKQEDMKGHFSISIPVKSDIAPVARLLIYAVLPTGDVIGDSAKYDVENCLANKVDLSFSPSQSLPASHAHLRVTAAPQSVCALRAVDQSVLLMKPDAELSASSVYNLLPEKDLTGFPGPLNDQDDEDCINRHNVYINGITYTPVSSTNEKDMYSFLEDMGLKAFTNSKIRKPKMCPQLEQYEMHGPSELEGRGSIPENFFGVEAIPMSIPTSEDLVVQIVEEPHTKLRKYFPETWIWDLVVVNSAGVAEVGVTVPDTITEWKAGAFCLSEDAGLGISSTASLRAFQPFFVELTMPYSVIRGEAFTLKATVLNYLPKCIRVSVQLEASPAFLAVPVEKEQAPHCICANGRQTVSWAVTPKSLGNVNFTVSAEALESQELCGTEVPSVPEHGRKDTVIKPLLVEPEGLEKETTFNSLLCPSGGEVSEELSLKLPPNVVEESARASVSVLGDILGSAMQNTQNLLQMPYGCGEQNMVLFAPNIYVLDYLNETQQLTPEIKSKAIGYLNTGYQRQLNYKHYDGSYSTFGERYGRNQGNTWLTAFVLKTFAQARAYIFIDEAHITQALIWLSQRQKDNGCFRSSGSLLNNAIKGGVEDEVTLSAYITIALLEIPLTVTHPVVRNALFCLESAWKTAQEGDHGSHVYTKALLAYAFALAGNQDKRKEVLKSLNEEAVKKDNSVHWERPQKPKAPVGHFYEPQAPSAEVEMTSYVLLAYLTAQPAPTSEDLTSATNIVKWITKQQNAQGGFSSTQDTVVALHALSKYGAATFTRTGKAAQVTIQSSGTFSSKFQVDNNNRLLLQQVSLPELPGEYSMKVTGEGCVYLQTSLKYNILPEKEEFPFALGVQTLPQTCDEPKAHTSFQISLSVSYTGSRSASNMAIVDVKMVSGFIPLKPTVKMLERSNHVSRTEVSSNHVLIYLDKVSNQTLSLFFTVLQDVPVRDLKPAIVKVYDYYETDEFAIAEYNAPCSKDLGNADYKDDDDKGASHHHHHH	150 % of WT	–
Variant A2M, bait region SEQ ID NO 126, P01023 24-1474 (protein) SVSGKPQYMVLVPSLLHTETTEKGCVLLSYLNETVTVSASLESVRGNRSLFTDLEAENDVLHCVAFAVPKSSSNEEVMFLTVQVKGPTQEFKKRTTVMVKNEDSLVFVQTDKSIYKPGQTVKFRVVSMDENFHPLNELIPLVYIQDPKGNRIAQWQSFQLEGGLKQFSFPLSSEPFQGSYKVVVQKKSGGRTEHPFTVEEFVLPKFEVQVTVPKIITILEEEMNVSVCGLYTYGKPVPGHVTVSICRKYSDASDCHGEDSQAFCEKFSGQLNSHGCFYQQVKTKVFQLKRKEYEMKLHTEAQIQEEGTVVELTGRQSSEITRTITKLSFVKVDSHFRQGIPFFGQVRLVDGKGVPIPNKVIFIRGNEANYYSNATTDEHGLVQFSINTTNVMGTSLTVRVNYKDRSPCYGYQWVSEEHEEAHHTAYLVFSPSKSFVHLEPMSHELPCGHTQTVQAHYILNGGTLLGLKKLSFYYLIMAKGGIVRTGTHGLLVKQEDMKGHFSISIPVKSDIAPVARLLIYAVLPTGDVIGDSAKYDVENCLANKVDLSFSPSQSLPASHAHLRVTAAPQSVCALRAVDQSVLLMKPDAELSASSVYNLLPEKDLTGFPGPLNDQDDEDCINRHNVYINGITYTPVSSTNEKDMYSFLEDMGLKAFTNSKIRKPKMCPQLEQYEMHGPEGEGEGEGIPENFFGVSEDLVVQISELEGRGSVEEPHTKLRKYFPETWIWDLVVVNSAGVAEVGVTVPDTITEWKAGAFCLSEDAGLGISSTASLRAFQPFFVELTMPYSVIRGEAFTLKATVLNYLPKCIRVSVQLEASPAFLAVPVEKEQAPHCICANGRQTVSWAVTPKSLGNVNFTVSAEALESQELCGTEVPSVPEHGRKDTVIKPLLVEPEGLEKETTFNSLLCPSGGEVSEELSLKLPPNVVEESARASVSVLGDILGSAMQNTQNLLQMPYGCGEQNMVLFAPNIYVLDYLNETQQLTPEIKSKAIGYLNTGYQRQLNYKHYDGSYSTFGERYGRNQGNTWLTAFVLKTFAQARAYIFIDEAHITQALIWLSQRQKDNGCFRSSGSLLNNAIKGGVEDEVTLSAYITIALLEIPLTVTHPVVRNALFCLESAWKTAQEGDHGSHVYTKALLAYAFALAGNQDKRKEVLKSLNEEAVKKDNSVHWERPQKPKAPVGHFYEPQAPSAEVEMTSYVLLAYLTAQPAPTSEDLTSATNIVKWITKQQNAQGGFSSTQDTVVALHALSKYGAATFTRTGKAAQVTIQSSGTFSSKFQVDNNNRLLLQQVSLPELPGEYSMKVTGEGCVYLQTSLKYNILPEKEEFPFALGVQTLPQTCDEPKAHTSFQISLSVSYTGSRSASNMAIVDVKMVSGFIPLKPTVKMLERSNHVSRTEVSSNHVLIYLDKVSNQTLSLFFTVLQDVPVRDLKPAIVKVYDYYETDEFAIAEYNAPCSKDLGNADYKDDDDKGASHHHHHH	229 % of WT	250 % of WT
Variant A2M, bait region SEQ ID NO 127, P01023 24-1474 (protein) SVSGKPQYMVLVPSLLHTETTEKGCVLLSYLNETVTVSASLESVRGNRSLFTDLEAENDVLHCVAFAVPKSSSNEEVMFLTVQVKGPTQEFKKRTTVMVKNEDSLVFVQTDKSIYKPGQTVKFRVVSMDENFHPLNELIPLVYIQDPKGNRIAQWQSFQLEGGLKQFSFPLSSEPFQGSYKVVVQKKSGGRTEHPFTVEEFVLPKFEVQVTVPKIITILEEEMNVSVCGLYTYGKPVPGHVTVSICRKYSDASDCHGEDSQAFCEKFSGQLNSHGCFYQQVKTKVFQLKRKEYEMKLHTEAQIQEEGTVVELTGRQSSEITRTITKLSFVKVDSHFRQGIPFFGQVRLVDGKGVPIPNKVIFIRGNEANYYSNATTDEHGLVQFSINTTNVMGTSLTVRVNYKDRSPCYGYQWVSEEHEEAHHTAYLVFSPSKSFVHLEPMSHELPCGHTQTVQAHYILNGGTLLGLKKLSFYYLIMAKGGIVRTGTHGLLVKQEDMKGHFSISIPVKSDIAPVARLLIYAVLPTGDVIGDSAKYDVENCLANKVDLSFSPSQSLPASHAHLRVTAAPQSVCALRAVDQSVLLMKPDAELSASSVYNLLPEKDLTGFPGPLNDQDDEDCINRHNVYINGITYTPVSSTNEKDMYSFLEDMGLKAFTNSKIRKPKMCPQLEQYEMHGPIPENFFGVSELEGRGSEAIPMSIPTEGEGEGEGVEEPHTKLRKYFPETWIWDLVVVNSAGVAEVGVTVPDTITEWKAGAFCLSEDAGLGISSTASLRAFQPFFVELTMPYSVIRGEAFTLKATVLNYLPKCIRVSVQLEASPAFLAVPVEKEQAPHCICANGRQTVSWAVTPKSLGNVNFTVSAEALESQELCGTEVPSVPEHGRKDTVIKPLLVEPEGLEKETTFNSLLCPSGGEVSEELSLKLPPNVVEESARASVSVLGDILGSAMQNTQNLLQMPYGCGEQNMVLFAPNIYVLDYLNETQQLTPEIKSKAIGYLNTGYQRQLNYKHYDGSYSTFGERYGRNQGNTWLTAFVLKTFAQARAYIFIDEAHITQALIWLSQRQKDNGCFRSSGSLLNNAIKGGVEDEVTLSAYITIALLEIPLTVTHPVVRNALFCLESAWKTAQEGDHGSHVYTKALLAYAFALAGNQDKRKEVLKSLNEEAVKKDNSVHWERPQKPKAPVGHFYEPQAPSAEVEMTSYVLLAYLTAQPAPTSEDLTSATNIVKWITKQQNAQGGFSSTQDTVVALHALSKYGAATFTRTGKAAQVTIQSSGTFSSKFQVDNNNRLLLQQVSLPELPGEYSMKVTGEGCVYLQTSLKYNILPEKEEFPFALGVQTLPQTCDEPKAHTSFQISLSVSYTGSRSASNMAIVDVKMVSGFIPLKPTVKMLERSNHVSRTEVSSNHVLIYLDKVSNQTLSLFFTVLQDVPVRDLKPAIVKVYDYYETDEFAIAEYNAPCSKDLGNADYKDDDDKGASHHHHHH	229 % of WT	180 % of WT
Variant A2M, bait region SEQ ID NO 124, P01023 24-1474 (protein) SVSGKPQYMVLVPSLLHTETTEKGCVLLSYLNETVTVSASLESVRGNRSLFTDLEAENDVLHCVAFAVPKSSSNEEVMFLTVQVKGPTQEFKKRTTVMVKNEDSLVFVQTDKSIYKPGQTVKFRVVSMDENFHPLNELIPLVYIQDPKGNRIAQWQSFQLEGGLKQFSFPLSSEPFQGSYKVVVQKKSGGRTEHPFTVEEFVLPKFEVQVTVPKIITILEEEMNVSVCGLYTYGKPVPGHVTVSICRKYSDASDCHGEDSQAFCEKFSGQLNSHGCFYQQVKTKVFQLKRKEYEMKLHTEAQIQEEGTVVELTGRQSSEITRTITKLSFVKVDSHFRQGIPFFGQVRLVDGKGVPIPNKVIFIRGNEANYYSNATTDEHGLVQFSINTTNVMGTSLTVRVNYKDRSPCYGYQWVSEEHEEAHHTAYLVFSPSKSFVHLEPMSHELPCGHTQTVQAHYILNGGTLLGLKKLSFYYLIMAKGGIVRTGTHGLLVKQEDMKGHFSISIPVKSDIAPVARLLIYAVLPTGDVIGDSAKYDVENCLANKVDLSFSPSQSLPASHAHLRVTAAPQSVCALRAVDQSVLLMKPDAELSASSVYNLLPEKDLTGFPGPLNDQDDEDCINRHNVYINGITYTPVSSTNEKDMYSFLEDMGLKAFTNSKIRKPKMCPQLEQYEMHGPKEEEGLGSSELEGRGSEAIPMSIPTIPENFFGVVEEPHTKLRKYFPETWIWDLVVVNSAGVAEVGVTVPDTITEWKAGAFCLSEDAGLGISSTASLRAFQPFFVELTMPYSVIRGEAFTLKATVLNYLPKCIRVSVQLEASPAFLAVPVEKEQAPHCICANGRQTVSWAVTPKSLGNVNFTVSAEALESQELCGTEVPSVPEHGRKDTVIKPLLVEPEGLEKETTFNSLLCPSGGEVSEELSLKLPPNVVEESARASVSVLGDILGSAMQNTQNLLQMPYGCGEQNMVLFAPNIYVLDYLNETQQLTPEIKSKAIGYLNTGYQRQLNYKHYDGSYSTFGERYGRNQGNTWLTAFVLKTFAQARAYIFIDEAHITQALIWLSQRQKDNGCFRSSGSLLNNAIKGGVEDEVTLSAYITIALLEIPLTVTHPVVRNALFCLESAWKTAQEGDHGSHVYTKALLAYAFALAGNQDKRKEVLKSLNEEAVKKDNSVHWERPQKPKAPVGHFYEPQAPSAEVEMTSYVLLAYLTAQPAPTSEDLTSATNIVKWITKQQNAQGGFSSTQDTVVALHALSKYGAATFTRTGKAAQVTIQSSGTFSSKFQVDNNNRLLLQQVSLPELPGEYSMKVTGEGCVYLQTSLKYNILPEKEEFPFALGVQTLPQTCDEPKAHTSFQISLSVSYTGSRSASNMAIVDVKMVSGFIPLKPTVKMLERSNHVSRTEVSSNHVLIYLDKVSNQTLSLFFTVLQDVPVRDLKPAIVKVYDYYETDEFAIAEYNAPCSKDLGNADYKDDDDKGASHHHHHH	237 % of WT	–
